Substrate: NC(=O)c1cccnc1
Assay: purified protein, by the assay type
Settings: other: substrate of Nampt, 37° C., pH 7.5

B1: purified recombinant mouse Nampt (Mus musculus) (protein)
chain: MNAAAEAEFNILLATDSYKVTHYKQYPPNTSKVYSYFECREKKTENSKVRKVKYEETVFYGLQYILNKYLKGKVVTKEKIQEAKEVYREHFQDDVFNERGWNYILEKYDGHLPIEVKAVPEGSVIPRGNVLFTVENTDPECYWLTNWIETILVQSWYPITVATNSREQKKILAKYLLETSGNLDGLEYKLHDFGYRGVSSQETAGIGASAHLVNFKGTDTVAGIALIKKYYGTKDPVPGYSVPAAEHSTITAWGKDHEKDAFEHIVTQFSSVPVSVVSDSYDIYNACEKIWGEDLRHLIVSRSTEAPLIIRPDSGNPLDTVLKVLDILGKKFPVTENSKGYKLLPPYLRVIQGDGVDINTLQEIVEGMKQKKWSIENVSFGSGGALLQKLTRDLLNCSFKCSYVVTNGLGVNVFKDPVADPNKRSKKGRLSLHRTPAGNFVTLEEGKGDLEEYGHDLLHTVFKNGKVTKSYSFDEVRKNAQLNIEQDVAPH
Km: 0.92 µM
